Several values for one entry are separate records, joined by “and”; a condition that tells them apart may be missing. Identical values can stand only once.
Molecular target: T1, soluble human GPC3 (human, UniProt P51654 25-563, limits assumed)
T1 construct: also called glypican 3
Experiment: SPR (Biacore), single-arm antibody, soluble human GPC3

T1 sequence (P51654 other isoform, or with tags, fused parts or gaps limits assumed, form in doubt): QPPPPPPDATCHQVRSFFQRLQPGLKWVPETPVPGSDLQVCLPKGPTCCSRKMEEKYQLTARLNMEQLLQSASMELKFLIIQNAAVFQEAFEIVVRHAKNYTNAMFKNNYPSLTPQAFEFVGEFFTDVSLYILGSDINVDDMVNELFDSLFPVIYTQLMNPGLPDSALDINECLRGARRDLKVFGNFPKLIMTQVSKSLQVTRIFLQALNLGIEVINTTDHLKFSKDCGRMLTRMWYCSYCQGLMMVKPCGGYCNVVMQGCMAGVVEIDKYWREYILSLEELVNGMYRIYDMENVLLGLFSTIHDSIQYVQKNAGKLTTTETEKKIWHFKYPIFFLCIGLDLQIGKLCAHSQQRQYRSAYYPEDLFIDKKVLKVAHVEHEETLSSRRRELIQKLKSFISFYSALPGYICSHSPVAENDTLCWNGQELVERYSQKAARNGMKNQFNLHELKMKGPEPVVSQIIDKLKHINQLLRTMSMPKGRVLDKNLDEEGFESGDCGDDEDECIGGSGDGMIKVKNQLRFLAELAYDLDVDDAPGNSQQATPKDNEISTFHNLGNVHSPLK

Row | Kd | Binder
1 | 4.92 nM | GCH022-G1dh/none-Hi-Kn010G3/L0000-k0 (antibody, human IgG1, kappa, single-arm antibody) heavy: not shown EPKSSDKTHTCPPCPAPELLGGPSVFLFPPKPKDTLMISRTPEVTCVVVDVSHEDPEVKFNWYVDGVEVHNAKTKPREEQYNSTYRVVSVLTVLHQDWLNGKEYKCKVSNKALPAPIEKTISKAKGQPREPQVCTLPPSRDELTKNQVSLWCLVKGFYPSDIAVEWESNGQPENNYKTTPPVLDSDGSFFLYSKLTVDKSRWQQGNVFSCSVMHEALHNRYTQKSLSLSP light: DIVMTQSPLSLPVTPGEPASISCRSSQSLVHSNRNTYLHWYQQKPGQAPRLLIYKVSNRFSGVPDRFSGSGSGTDFTLKISRVEAEDVGVYYCGQGTQVPYTFGQGTKLEIKRTVAAPSVFIFPPSDEQLKSGTASVVCLLNNFYPREAKVQWKVDNALQSGNSQESVTEQDSKDSTYSLSSTLTLSKADYEKHKVYACEVTHQGLSSPVTKSFNRGEC
2 | 5.55 nM | GCH008-G1dh/none-Hi-Kn010G3/L0000-k0 (antibody, human IgG1, kappa, single-arm antibody) heavy: not shown EPKSSDKTHTCPPCPAPELLGGPSVFLFPPKPKDTLMISRTPEVTCVVVDVSHEDPEVKFNWYVDGVEVHNAKTKPREEQYNSTYRVVSVLTVLHQDWLNGKEYKCKVSNKALPAPIEKTISKAKGQPREPQVCTLPPSRDELTKNQVSLWCLVKGFYPSDIAVEWESNGQPENNYKTTPPVLDSDGSFFLYSKLTVDKSRWQQGNVFSCSVMHEALHNRYTQKSLSLSP light: DIVMTQSPLSLPVTPGEPASISCRSSQSLVHSNRNTYLHWYQQKPGQAPRLLIYKVSNRFSGVPDRFSGSGSGTDFTLKISRVEAEDVGVYYCGQGTQVPYTFGQGTKLEIKRTVAAPSVFIFPPSDEQLKSGTASVVCLLNNFYPREAKVQWKVDNALQSGNSQESVTEQDSKDSTYSLSSTLTLSKADYEKHKVYACEVTHQGLSSPVTKSFNRGEC
3 | 5.32 nM | GCH005-G1dh/none-Hi-Kn010G3/L0000-k0 (antibody, human IgG1, kappa, single-arm antibody) heavy: not shown EPKSSDKTHTCPPCPAPELLGGPSVFLFPPKPKDTLMISRTPEVTCVVVDVSHEDPEVKFNWYVDGVEVHNAKTKPREEQYNSTYRVVSVLTVLHQDWLNGKEYKCKVSNKALPAPIEKTISKAKGQPREPQVCTLPPSRDELTKNQVSLWCLVKGFYPSDIAVEWESNGQPENNYKTTPPVLDSDGSFFLYSKLTVDKSRWQQGNVFSCSVMHEALHNRYTQKSLSLSP light: DIVMTQSPLSLPVTPGEPASISCRSSQSLVHSNRNTYLHWYQQKPGQAPRLLIYKVSNRFSGVPDRFSGSGSGTDFTLKISRVEAEDVGVYYCGQGTQVPYTFGQGTKLEIKRTVAAPSVFIFPPSDEQLKSGTASVVCLLNNFYPREAKVQWKVDNALQSGNSQESVTEQDSKDSTYSLSSTLTLSKADYEKHKVYACEVTHQGLSSPVTKSFNRGEC
4 | 5.4 nM | GCH012-G1dh/none-Hi-Kn010G3/L0000-k0 (antibody, human IgG1, kappa, single-arm antibody) heavy: not shown EPKSSDKTHTCPPCPAPELLGGPSVFLFPPKPKDTLMISRTPEVTCVVVDVSHEDPEVKFNWYVDGVEVHNAKTKPREEQYNSTYRVVSVLTVLHQDWLNGKEYKCKVSNKALPAPIEKTISKAKGQPREPQVCTLPPSRDELTKNQVSLWCLVKGFYPSDIAVEWESNGQPENNYKTTPPVLDSDGSFFLYSKLTVDKSRWQQGNVFSCSVMHEALHNRYTQKSLSLSP light: DIVMTQSPLSLPVTPGEPASISCRSSQSLVHSNRNTYLHWYQQKPGQAPRLLIYKVSNRFSGVPDRFSGSGSGTDFTLKISRVEAEDVGVYYCGQGTQVPYTFGQGTKLEIKRTVAAPSVFIFPPSDEQLKSGTASVVCLLNNFYPREAKVQWKVDNALQSGNSQESVTEQDSKDSTYSLSSTLTLSKADYEKHKVYACEVTHQGLSSPVTKSFNRGEC
5 | 5.2 nM | GCH003-G1dh/none-Hi-Kn010G3/L0000-k0 (antibody, human IgG1, kappa, single-arm antibody) heavy: not shown EPKSSDKTHTCPPCPAPELLGGPSVFLFPPKPKDTLMISRTPEVTCVVVDVSHEDPEVKFNWYVDGVEVHNAKTKPREEQYNSTYRVVSVLTVLHQDWLNGKEYKCKVSNKALPAPIEKTISKAKGQPREPQVCTLPPSRDELTKNQVSLWCLVKGFYPSDIAVEWESNGQPENNYKTTPPVLDSDGSFFLYSKLTVDKSRWQQGNVFSCSVMHEALHNRYTQKSLSLSP light: DIVMTQSPLSLPVTPGEPASISCRSSQSLVHSNRNTYLHWYQQKPGQAPRLLIYKVSNRFSGVPDRFSGSGSGTDFTLKISRVEAEDVGVYYCGQGTQVPYTFGQGTKLEIKRTVAAPSVFIFPPSDEQLKSGTASVVCLLNNFYPREAKVQWKVDNALQSGNSQESVTEQDSKDSTYSLSSTLTLSKADYEKHKVYACEVTHQGLSSPVTKSFNRGEC

Molecular target: T2, soluble human CD3ε chain (human, UniProt P07766 23-126, limits assumed)
T2 construct: also called human CD3 epsilon chain
Experiment: SPR (Biacore), soluble human CD3ε chain

T2 sequence (P07766 23-126 limits assumed): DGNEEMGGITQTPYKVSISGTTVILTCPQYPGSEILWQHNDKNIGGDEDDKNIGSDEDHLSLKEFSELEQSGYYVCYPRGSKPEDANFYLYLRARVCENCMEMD

Row | Kd | Binder
6 | 80 nM | rCE115H-E22Hh/none-Hi-Kn010G3/L0000-k0 (antibody, human IgG1, kappa, L234A L235A, N297A, one-arm antibody (single Fab) with Fab-less hinge-Fc chain Hi-Kn010G3) heavy: EVQLVETGGSLVQPGKSLKLTCATSGFTFSNAWMHWVRQSPEKQLEWVAQIKAKSNNYATYYAESVKGRFTISRDDSKSNIYLQMNSLKEEDTAVYYCRYVHYGAYYGVDAWGQGTSVTVSSASTKGPSVFPLAPSSKSTSGGTAALGCLVKDYFPEPVTVSWNSGALTSGVHTFPAVLQSSGLYSLSSVVTVPSSSLGTQTYICNVNHKPSNTKVDKKVEPKSCDKTHTCPPCPAPEAAGGPSVFLFPPKPKDTLMISRTPEVTCVVVDVSHEDPEVKFNWYVDGVEVHNAKTKPREEQYASTYRVVSVLTVLHQDWLNGKEYKCKVSNKALPAPIEKTISKAKGQPREPQVYTLPPSRCELTKNQVSLSCAVKGFYPSDIAVEWESNGQPENNYKTTPPVLDSDGSFFLVSKLTVDKSRWQQGNVFSCSVMHEALHNHYTQKSLSLSPDYKDDDDK EPKSSDKTHTCPPCPAPELLGGPSVFLFPPKPKDTLMISRTPEVTCVVVDVSHEDPEVKFNWYVDGVEVHNAKTKPREEQYNSTYRVVSVLTVLHQDWLNGKEYKCKVSNKALPAPIEKTISKAKGQPREPQVCTLPPSRDELTKNQVSLWCLVKGFYPSDIAVEWESNGQPENNYKTTPPVLDSDGSFFLYSKLTVDKSRWQQGNVFSCSVMHEALHNRYTQKSLSLSP light: DIVMTQSPLSLPVTPGEPASISCRSSQSLVHSNRNTYLHWYQQKPGQAPRLLIYKVSNRFSGVPDRFSGSGSGTDFTLKISRVEAEDVGVYYCGQGTQVPYTFGQGTKLEIKRTVAAPSVFIFPPSDEQLKSGTASVVCLLNNFYPREAKVQWKVDNALQSGNSQESVTEQDSKDSTYSLSSTLTLSKADYEKHKVYACEVTHQGLSSPVTKSFNRGEC
7 | 85.2 nM | rCE115H-E22Hh/none-Hi-Kn010G3/L0000vk1-k0 (antibody, human IgG1, kappa, L234A L235A, N297A, one-arm antibody (single Fab) with Fab-less hinge-Fc chain Hi-Kn010G3) heavy: EVQLVETGGSLVQPGKSLKLTCATSGFTFSNAWMHWVRQSPEKQLEWVAQIKAKSNNYATYYAESVKGRFTISRDDSKSNIYLQMNSLKEEDTAVYYCRYVHYGAYYGVDAWGQGTSVTVSSASTKGPSVFPLAPSSKSTSGGTAALGCLVKDYFPEPVTVSWNSGALTSGVHTFPAVLQSSGLYSLSSVVTVPSSSLGTQTYICNVNHKPSNTKVDKKVEPKSCDKTHTCPPCPAPEAAGGPSVFLFPPKPKDTLMISRTPEVTCVVVDVSHEDPEVKFNWYVDGVEVHNAKTKPREEQYASTYRVVSVLTVLHQDWLNGKEYKCKVSNKALPAPIEKTISKAKGQPREPQVYTLPPSRCELTKNQVSLSCAVKGFYPSDIAVEWESNGQPENNYKTTPPVLDSDGSFFLVSKLTVDKSRWQQGNVFSCSVMHEALHNHYTQKSLSLSPDYKDDDDK EPKSSDKTHTCPPCPAPELLGGPSVFLFPPKPKDTLMISRTPEVTCVVVDVSHEDPEVKFNWYVDGVEVHNAKTKPREEQYNSTYRVVSVLTVLHQDWLNGKEYKCKVSNKALPAPIEKTISKAKGQPREPQVCTLPPSRDELTKNQVSLWCLVKGFYPSDIAVEWESNGQPENNYKTTPPVLDSDGSFFLYSKLTVDKSRWQQGNVFSCSVMHEALHNRYTQKSLSLSP light: DIQMTQSPSSLSASVGDRVTITCRSSQSLVHSNRNTYLHWYQQKPGKAPKLLIYKVSNRFSGVPSRFSGSGSGTDFTFTISSLQPEDIATYYCGQGTQVPYTFGQGTKVEIKRTVAAPSVFIFPPSDEQLKSGTASVVCLLNNFYPREAKVQWKVDNALQSGNSQESVTEQDSKDSTYSLSSTLTLSKADYEKHKVYACEVTHQGLSSPVTKSFNRGEC
8 | 124 nM and 138 nM | rCE115H-E22Hh/none-Hi-Kn010G3/rCE115L-k0 (antibody, human IgG1, kappa, L234A L235A, N297A, one-arm antibody (single Fab) with Fab-less hinge-Fc chain Hi-Kn010G3; also called rCE115H-E22Hh//-Hi-Kn010G3/rCE115L-k0) heavy: EVQLVETGGSLVQPGKSLKLTCATSGFTFSNAWMHWVRQSPEKQLEWVAQIKAKSNNYATYYAESVKGRFTISRDDSKSNIYLQMNSLKEEDTAVYYCRYVHYGAYYGVDAWGQGTSVTVSSASTKGPSVFPLAPSSKSTSGGTAALGCLVKDYFPEPVTVSWNSGALTSGVHTFPAVLQSSGLYSLSSVVTVPSSSLGTQTYICNVNHKPSNTKVDKKVEPKSCDKTHTCPPCPAPEAAGGPSVFLFPPKPKDTLMISRTPEVTCVVVDVSHEDPEVKFNWYVDGVEVHNAKTKPREEQYASTYRVVSVLTVLHQDWLNGKEYKCKVSNKALPAPIEKTISKAKGQPREPQVYTLPPSRCELTKNQVSLSCAVKGFYPSDIAVEWESNGQPENNYKTTPPVLDSDGSFFLVSKLTVDKSRWQQGNVFSCSVMHEALHNHYTQKSLSLSPDYKDDDDK EPKSSDKTHTCPPCPAPELLGGPSVFLFPPKPKDTLMISRTPEVTCVVVDVSHEDPEVKFNWYVDGVEVHNAKTKPREEQYNSTYRVVSVLTVLHQDWLNGKEYKCKVSNKALPAPIEKTISKAKGQPREPQVCTLPPSRDELTKNQVSLWCLVKGFYPSDIAVEWESNGQPENNYKTTPPVLDSDGSFFLYSKLTVDKSRWQQGNVFSCSVMHEALHNRYTQKSLSLSP light: DVVMTQTPVSMSVSLGGQVSISCRSSQSLVHNNGNTYVSWYIQKPSQSPQLLIYKVSNRFSGISDRFSGSGSGTDFTLKISRVEPDDLGVYYCGQGTQDPYTFGAGTKLELKRTVAAPSVFIFPPSDEQLKSGTASVVCLLNNFYPREAKVQWKVDNALQSGNSQESVTEQDSKDSTYSLSSTLTLSKADYEKHKVYACEVTHQGLSSPVTKSFNRGEC
9 | 93 nM | TR01H015-E22Hh/none-Hi-Kn010G3/TR01L006-k0 (antibody, human IgG1, kappa, L234A L235A, N297A, one-arm antibody (single Fab) with Fab-less hinge-Fc chain Hi-Kn010G3) heavy: QVQLVESGGGLVQPGRSLRLSCAASGFTFSNAWMHWVRQAPGKGLEWVAQIKGKSNNYATYYAESVKGRFTISRADSKNSIYLQMNSLKTEDTAVYYCRYVHYSASYGVDIWGQGTTVTVSSASTKGPSVFPLAPSSKSTSGGTAALGCLVKDYFPEPVTVSWNSGALTSGVHTFPAVLQSSGLYSLSSVVTVPSSSLGTQTYICNVNHKPSNTKVDKKVEPKSCDKTHTCPPCPAPEAAGGPSVFLFPPKPKDTLMISRTPEVTCVVVDVSHEDPEVKFNWYVDGVEVHNAKTKPREEQYASTYRVVSVLTVLHQDWLNGKEYKCKVSNKALPAPIEKTISKAKGQPREPQVYTLPPSRCELTKNQVSLSCAVKGFYPSDIAVEWESNGQPENNYKTTPPVLDSDGSFFLVSKLTVDKSRWQQGNVFSCSVMHEALHNHYTQKSLSLSPDYKDDDDK EPKSSDKTHTCPPCPAPELLGGPSVFLFPPKPKDTLMISRTPEVTCVVVDVSHEDPEVKFNWYVDGVEVHNAKTKPREEQYNSTYRVVSVLTVLHQDWLNGKEYKCKVSNKALPAPIEKTISKAKGQPREPQVCTLPPSRDELTKNQVSLWCLVKGFYPSDIAVEWESNGQPENNYKTTPPVLDSDGSFFLYSKLTVDKSRWQQGNVFSCSVMHEALHNRYTQKSLSLSP light: DIVMTQSPLSLPVTPGEPASISCQASESLVHSNRNTYLHWYLQKPGQSPQLLIYKVSNRFSGVPDRFSGSGSGTDFTLKISRVEAEDVGVYYCGQGTQVPYTFGQGTKVEIERTVAAPSVFIFPPSDEQLKSGTASVVCLLNNFYPREAKVQWKVDNALQSGNSQESVTEQDSKDSTYSLSSTLTLSKADYEKHKVYACEVTHQGLSSPVTKSFNRGEC
